Measurements taken from publication PMC10702411.

What was measured:
[1] = target: C-terminal fluorescein-labeled H3 peptide (1–12) (UniProt P68431); assay: MST
[2] = target: third BIR domain of BIRC2 (BIRC2_(BIR3)), GST cleaved (human) (UniProt Q13490); assay: other fluorescence titration
Chain of third BIR domain of BIRC2 (BIRC2_(BIR3)), GST cleaved (human) (Q13490 261-346): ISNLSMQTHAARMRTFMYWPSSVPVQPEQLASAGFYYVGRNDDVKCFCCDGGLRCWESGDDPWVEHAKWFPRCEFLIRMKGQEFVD

| Substance | Kd [1] [nM] | Kd [2] [nM] |
| --- | --- | --- |
| third BIR domain of BIRC2 (BIRC2_(BIR3)), GST cleaved (from UniProt Q13490 261-346) (domain or fragment) | 340 |  |
| H3_(1–12) peptide (residues 1–12 of H3) (from UniProt P68431 2-13) |  | 400 |
